Here are results for three molecules from patent US20190092850A1 (NUMAB INNOVATION, published 2019).

The target of one assay is Rhesus monkey TNFα (Rhesus monkey (Macaca mulatta), UniProt P48094 77-233). Put plainly: cell-based or functional assay.
Assay [1] has as its target T1, recombinant human TNFα (human, UniProt P01375 77-233). Put plainly: cell-based or functional assay.
Assay [2] concerns the target recombinant Cynomolgus monkey TNFα (Cynomolgus monkey (Macaca fascicularis), UniProt P79337 77-233). Put plainly: cell-based or functional assay.
Assay [3] concerns the target T1, recombinant human TNFα. Put plainly: SPR (MASS-1), human TNFα immobilised, scFv injected; screening with 90 nM of scFv.
Experimental: (§1) In a second step, for the best performing scFvs, Single Injection Cycle Kinetics (SiCK) were measured from a single injection cycle by simultaneously injecting six analyte samples at different concentrations into each of the eight parallel channels in the MASS-1 system. […] The apparent dissociation (kd) and association (kₐ) rate constants and the apparent dissociation equilibrium constant (KD) were calculated with the MASS-1 analysis software (Analyzer, Sierra Sensors) using one-to-one Langmuir binding model and quality of the fits was monitored based on Chi², which is a measure for the quality of the curve fitting. The smaller the value for the Chi² the more accurate is the fitting to the one-to-one Langmuir binding model. For affinity screenings, results were deemed valid if the Chi² was below 10 for the concentration analyzed. In cases where several scFv concentrations were analyzed, results were deemed valid if the average Chi² over all the concentrations tested was below 10.
Assay [4] addresses T1, recombinant human TNFα. Put plainly: SPR (MASS-1), human TNFα immobilised, two-fold serial dilutions of scFv injected.
Experimental: Affinity was determined using 2-fold serial dilutions of the respective scFvs.
as §1

Numbering of substitutions follows the chain as printed.

T1 sequence (P01375 77-233 limits assumed): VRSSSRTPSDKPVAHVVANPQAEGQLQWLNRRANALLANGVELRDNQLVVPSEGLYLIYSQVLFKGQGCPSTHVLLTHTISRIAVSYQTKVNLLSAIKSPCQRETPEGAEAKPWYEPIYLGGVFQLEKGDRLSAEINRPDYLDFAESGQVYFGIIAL
recombinant Cynomolgus monkey TNFα, sequence (P79337 77-233 limits assumed): as the sequence (P01375 77-233 limits assumed) above, with L37V, R44T, T72N, R138L counted along it
Rhesus monkey TNFα, sequence (P48094 77-233 limits assumed): as the sequence (P01375 77-233 limits assumed) above, with R44T, T72N, R138L counted along it

B1: humanized scFv 16-19-B11-sc01 (CDR graft) (scFv)
scFv: MDIQMTQSPSSLSASVGDRVTITCQASESISSWLAWYQQKPGKAPKLLIYKASTLASGVPSRFSGSGSGTDFTLTISSLQPEDFATYYCQGYYLDSSVDDNVFGGGTKLTVLGGGGGSGGGGSGGGGSGGGGSEVQLVESGGGLVQPGGSLRLSCAASGIDFSTYGISWVRQAPGKGLEWIGYIYPDYGITDYASWVNGRFTISRDNSKNTVYLQMNSLRAEDTAVYYCARSGSYYSRGWGAHYFNLWGQGTLVTVSS
As to B1, in the assay with Rhesus monkey TNFα, the “Species specificity in L929 assay IC50 (ng/ml), rhesus” value is 59.7 ng/mL. In the assay with recombinant human TNFα [1], the “Neutralization of TNF in L929 assay, rel. IC50 (IC50, Infliximab (ng/ml)/IC50, scFv (ng/ml))” value is 0.6 ratio; the “Neutralization of TNF in L929 assay, rel. IC90 (IC90, Infliximab (ng/ml)/IC90, scFv (ng/ml))” value was determined as 0.2 ratio; the “Species specificity in L929 assay IC50 (ng/ml), human” value (from here on “Species specificity … human”) is 12.1 ng/mL. The “Species specificity in L929 assay IC50 (ng/ml), cyno” value in assay [2] was 92.1 ng/mL. In the assay with recombinant human TNFα [3], the Kd – broadly, a measure of binding affinity in units of concentration – came to 0.7 nM; the off-rate constant (koff) (commonly the first-order rate constant of dissociation) was found to be 0.00048 s⁻¹; the on-rate (kon) – broadly, the second-order rate constant of association – turned out to be 680000 M⁻¹ s⁻¹.

B2: humanized scFv 16-19-B11-sc06 (structural graft) (scFv)
scFv: B1 scFv with T23N, A44R, F72Y, G182A, R205L, S208A, K209Q
With B2, in the assay with recombinant human TNFα [4], the Kd was found to be 0.059 nM, the koff worked out at 5.8e-05 s⁻¹ and the on-rate constant (kon) worked out at 970000 M⁻¹ s⁻¹. Also, in the assay with Rhesus monkey TNFα, the “Species specificity in L929 assay IC50 (ng/ml), rhesus” value came to 1 ng/mL. Further, in the assay with recombinant human TNFα [1], the “Neutralization of TNF in L929 assay, rel. IC50 (IC50, Infliximab (ng/ml)/IC50, scFv (ng/ml))” value amounted to 16.2 ratio; the “Neutralization of TNF in L929 assay, rel. IC90 (IC90, Infliximab (ng/ml)/IC90, scFv (ng/ml))” value stood at 15 ratio; the “Species specificity … human” value worked out at 0.4 ng/mL. Also, the “Species specificity in L929 assay IC50 (ng/ml), cyno” value in assay [2] came to 1.8 ng/mL.

B3: humanized scFv 16-19-B11-sc02 (structural graft) (scFv)
scFv: B1 scFv with T23N, D71E, S78G, E82A, A156K, G182A, R205L
As to B3, in the assay with recombinant human TNFα [1], the “Neutralization of TNF in L929 assay, rel. IC50 (IC50, Infliximab (ng/ml)/IC50, scFv (ng/ml))” value turned out to be 94 ratio; the “Neutralization of TNF in L929 assay, rel. IC90 (IC90, Infliximab (ng/ml)/IC90, scFv (ng/ml))” value was determined as 4.5 ratio; the “Species specificity … human” value was 0.8 ng/mL. Moreover, in the assay with recombinant human TNFα [3], the Kd was found to be 0.22 nM, the koff was found to be 0.00016 s⁻¹ and the on-rate constant (kon) was 730000 M⁻¹ s⁻¹.
